From patent US9907791B2, “Ron inhibitors for use in preventing and treating bone loss” (UNIVERSITY OF UTAH RESEARCH FOUNDATION, priority 2014, dated 2018)

Tests used:
[1] = system: MDA-MB-231 control tumor cells; assay: Intratibial MDA-MB-231 control tumor-induced osteolysis; format: in vivo, NOD.SCID mice; settings: treated 3 days post tumor cell injection, sacrificed 30 days
Source text: (§1) All procedures involving mice and experimental protocols were approved by the Institutional Animal Care and Use Committee (IACUC) of the University of Utah. The RonTK−/− mice which reside on the FVB background, were crossed with NOD.SCID mice for an immune-compromised mouse model. As a control, wild-type FVB mice were also crossed with NOD.SCID mice. The STK−/− mice, which are on a C57BL/6 background, were compared to wild-type C57BL/6 mice as controls. Mice for all experiments were 6 to 8 weeks of age. For intratibial injections, 1×10^5 (PyMTor DU4475) or 3×10^5 (MDA-MB-231) tumor cells were resuspended in 10 μL matrigel and injected into the right tibia of anesthetized female FVB (PyMT) or NOD.SCID mice carrying various alleles of RON. Osteolysis was assessed by X-ray radiography. Dissected hindlimbs from mice sacrificed at the final time point in each experiment were placed in the Kodak In-vivo Multispectral Imaging System FX and exposed to X-ray radiography at 35 kV for 100 sec. Excess tumor tissue was removed from the bones prior to X-ray. Osteolytic lesions were quantified using Image J software (NCBI). All images were compared to the contralateral leg as an internal control.
(§2) For in vivo experiments, the OSI-296 inhibitor was dissolved in 40% Trappsol with 0.01 M HCl, and mice were treated at a concentration of 200 mg/kg daily by oral gavage. […]

PyMT control tumor cells = assay: Intratibial PyMT control tumor-induced osteolysis; format: in vivo, mice
Source text: as §1, §2

bone marrow osteoclasts = assay: Osteoclast resorption assay; format: cell-based, mice; settings: WT osteoclasts, inhibitors 10 μM or muRANK-Fc 10 μg/mL daily day 9 to 12
Method: Bone marrow osteoclasts were generated from 6 to 8 week old WT and RonTK−/− mice. Briefly, bone marrow was isolated from hindlimb bones and plated in α-MEM media containing 10% heat-inactivated fetal bovine serum (FBS, Sigma, St. Louis, Mo.), 100 units/mL penicillin-streptomycin (Hyclone), and 33 ng/mL human macrophage colony-stimulating factor (hM-CSF) (PeproTech, Rocky Hill, N.J.) for 24 hours. Non-adherent cells were collected and frozen for later use. To assess resorption activity, bone marrow precursor cells were thawed and seeded at a density of 1×10^5 cells per well in BioCoat Osteologic slides (BD Biosciences, San Jose, Calif.) in α-MEM media containing 10% FBS and antibiotics. After adhering overnight, media was removed and media containing 33 ng/mL hM-CSF and 9 ng/mL muRANKL (R & D systems, Minneapolis, Minn.) was added. The medium was changed every 3 days depending on acidification, and the assay was terminated as indicated. Recombinant human MSP was prepared and added daily as indicated. Cells were removed with 6% bleach and slides were viewed microscopically using phase-contrast with 20× magnification. Osteolytic resorption area within 5 representative fields was determined using Image J software, experiments were performed in triplicate. Recombinant MSP was prepared as follows (to be described in detail elsewhere): Concentrated, serum-free media from an MCF7 cell line engineered to overexpress MSP was cleaved with kallikrein (Invitrogen, Waltham, Mass.; 4 ng of kallikrein/1 μg of supernatant protein at 37° C. for 2.5 hours). The reaction was diluted to 20 mL with 10 mM sodium phosphate, pH 7.4 and loaded onto a 5 mL HiTrap heparin column (Millipore, Billerica, Mass.) equilibrated with 20 mL of 10 mM sodium phosphate, pH 7.4, at a rate of 1 mL/min. The column was washed with 10 mL of 10 mM sodium phosphate, pH 7.4, at a rate of 1 mL/min. […]

[2] = system: MSP-overexpressing MDA-MB-231 cells; assay: Intratibial MSP-overexpressing MDA-MB-231 tumor-induced osteolysis; format: in vivo, NOD.SCID mice; settings: treated 3 days post tumor cell injection, sacrificed 30 days
Source text: as §1, §2

B1: muRANK-Fc: murine RANKL antagonist (Amgen) (protein)
chain: VTPPCTQERHYEHLGRCCSRCEPGKYLSSKCTPTSDSVCLPCGPDEYLDTWNEEDKCLLHKVCDAGKALVAVDPGNHTAPRRCACTAGYHWNSDCECCRRNTECAPGFGAQHPLQLNKDTVCTPCLLGFFSDVFSSTDKCKPWTNCTLLGKLEAHQGTTESDVVCSSSMTLRRPPKEAQAYLPS
modifications: left off: a dimerising Fc or GST
[1]
  osteolysis from control MDA-MB-231 tumor cells: reduced osteolysis
PyMT control tumor cells; WT mice, treatment began 3 days post injection, sacrificed 42 days post injection
  osteolysis from PyMT control tumors (no MSP): significantly impaired
PyMT control tumor cells; caliper measurements
  tumor growth of PyMT control bone lesions: no significant effect on tumor growth
Bone marrow osteoclasts
  MSP-induced increase in osteoclast resorption (resorption area): only slightly reduced
[2]
  osteolysis from MSP-expressing MDA-MB-231 tumor cells: did not significantly reduce
